The values below come from paper PMC11686404.

The target in the experiment is native BnFMO, flavin monooxygenase from Bacillus niacini (Bacillus niacini). The experiment in a line: cryo-EM structure.

Broadly, the stoichiometry N is the number of molecules, sites or subunits per partner or assembly.

For “native BnFMO, flavin monooxygenase from Bacillus niacini (enzyme)”, the stoichiometry N is 3.
